A short description of series [1]: brush border membrane vesicles (BBMVs) extracted from mouse kidneys. The settings on record: 37 °C, up to 1 h.
The nature of series [2]: mouse blood samples collected at 5 min p.i. The settings on record: Male NSG mice, up to 5 min p.i.
The nature of series [3]: brush border membrane vesicles (BBMVs) extracted from mouse kidneys, control well with phosphoramidon. The settings on record: 37 °C, up to 1 h.
Series [4] is described as follows: mouse urine samples collected at 15 min p.i. The settings on record: Male NSG mice, up to 15 min p.i.
The nature of another series: in vivo. The following applies: male, NOD-scid IL2Rg^null (NSG), mouse, iv, total radioactivity. Here is the method: All imaging and biodistribution studies were performed using male NOD-scid IL2Rg^null (NSG) mice and conducted according to the guidelines established by the Canadian Council on Animal Care and approved by Animal Ethics Committee of the University of British Columbia. For tumor inoculations, mice were anesthetized by inhalation with 2% isoflurane in oxygen and implanted subcutaneously with 5 × 10^6 LNCaP cells below the left shoulder. Imaging and biodistribution studies were performed only after tumors grew to 5−8 mm in diameter over a period of 5−7 weeks.
For ex vivo biodistribution studies, mice were injected with ~1.5−3 MBq of the ^68Ga-labeled tracer. At 1 h p.i., mice were euthanized, blood was drawn from heart, and organs/tissues of interest were collected, rinsed with PBS, blotted dry, weighed, and counted using an automated gamma counter. The uptake in each organ/tissue was normalized to the injected dose and expressed as the percentage of the injected dose per gram of tissue (%ID/g).
Statistical analyses were performed by Student’s t-test using the Microsoft (Redmond, WA, USA) Excel software. The unpaired, two-tailed test was used to compare tissue uptake and tumor-to-background (muscle, blood and kidney) contrast ratios of [^68Ga]Ga-DOTA-AmBz-MVK(HTK01166)-OH and [^68Ga]Ga-DOTA-AmBz-M(O)VK(HTK01166)-OH. The unpaired, one-tailed test was used to compare kidney uptake of [^68Ga]Ga-DOTA-AmBz-MVK(HTK01166)-OH (or [^68Ga]Ga-DOTA-AmBz-M(O)VK(HTK01166)-OH) with that of the previously reported [^68Ga]Ga-HTK01166 [15]. The difference was considered statistically significant when the p value was <0.05.

Another series relates to mice. The settings on record: mouse, in vivo. Here is the method:
Radio-metabolites of [^68Ga]Ga-DOTA-AmBz-MVK(Ac)-OH and [^68Ga]Ga-DOTA-AmBz-MVK(HTK01166)-OH in mouse blood and urine samples were analyzed by HPLC. The blood samples were collected at 5 min p.i. due to the fast excretion nature of the small radio-metabolites, whereas the urine samples were collected at 15 min p.i. to allow sufficient time for the accumulation of enough radio-metabolites for analysis.
Male NSG mice were injected with 3–17 MBq of the ^68Ga-labeled peptide. For blood profiling, mice were anesthetized with 2% isoflurane in O2 and euthanized by CO2 inhalation at 5 min p.i. Blood draw was then performed by cardiac puncture and blood was collected in an eppendorf tube with equal volume of CH3CN. Each tube was then centrifuged at RT for 10–15 min and the resulting supernatant was collected and analyzed using the analytical HPLC column to identify and quantify radio-metabolite(s) in blood. For the purpose of urine profiling, urine was collected after euthanizing the mice at 15 min p.i. The urine samples were also collected and analyzed using the analytical HPLC column to identify and quantify radio-metabolite(s) in urine.

Series [5] is described as follows: brush border membrane vesicles (BBMVs) extracted from mouse kidneys, with phosphoramidon. The following applies: 37 °C, up to 1 h.

The values below come from publication PMC7503470 (Molecules, 2020).

In the case of [^68Ga]Ga-DOTA-AmBz-MVK(Ac)-OH, the cleaved bond result is “Met-Val, major, 1 h” in series [1]; “Met-Val, minor, 5 min p.i” in series [2]; “Met-Val, 1 h” in series [3]; “Met-Val, major, 15 min p.i” in series [4].
As for `CC(C)[C@H](NC(=O)[C@H](CC[S+](C)[O-])NC(=O)c1ccc(CNC(=O)CN2CCN(CC(=O)O)CCN(CC(=O)O)CCN(CC(=O)O)CC2)cc1)C(=O)N[C@@H](CCCCNC(=O)CCc1cn(CC(=O)NC[C@H]2CC[C@H](C(=O)N[C@H](C(=O)NCCCC[C@H](NC(=O)N[C@@H](CCC(=O)O)C(=O)O)C(=O)O)C3Cc4ccccc4C3)CC2)nn1)C(=O)O` (stereo partly shown) [[^68Ga]Ga-DOTA-AmBz-M(O)VK(HTK01166)-OH, metal not drawn], the tissue uptake (in general, the share of the injected amount in each gram of the tissue) at 1 h in “in vivo” (Adrenal Glands uptake) was determined as 4.33 ± 2.07 %ID/g; in the series “in vivo” (Bone uptake), 0.11 ± 0.05 %ID/g; in “in vivo” (Brain uptake), 0.03 ± 0.01 %ID/g; in “in vivo” (Fat uptake), 0.52 ± 0.13 %ID/g; in “in vivo” (Heart uptake) it was 0.23 ± 0.05 %ID/g; in “in vivo” (Intestines uptake), 0.29 ± 0.1 %ID/g. Further, the tissue uptake at 1 h in the series “in vivo” (Kidneys uptake) came out at 89.7 ± 19.3 %ID/g; in the series “in vivo” (LNCaP Tumor uptake), 4.06 ± 1.27 %ID/g; in the series “in vivo” (Liver uptake), 0.32 ± 0.06 %ID/g; in “in vivo” (Lungs uptake) it was 0.88 ± 0.1 %ID/g; in the series “in vivo” (Muscle uptake), 0.22 ± 0.05 %ID/g; in “in vivo” (Pancreas uptake), 0.56 ± 0.24 %ID/g. In addition, the tissue uptake at 1 h came to 11.5 ± 2.7 %ID/g in the series “in vivo” (Spleen uptake), 0.13 ± 0.05 %ID/g in the series “in vivo” (Stomach uptake), 1.86 ± 2.44 %ID/g in “in vivo” (Tail uptake) and 0.31 ± 0.07 %ID/g in “in vivo” (Testes uptake). The tissue to tissue ratio at 1 h in “in vivo” (Tumor/Blood uptake ratio) was determined as 6.83 ± 2.81; in the series “in vivo” (Tumor/Kidney uptake ratio), 0.04 ± 0.02; in “in vivo” (Tumor/Muscle uptake ratio), 17.9 ± 7.57.
In the case of [^68Ga]Ga-DOTA-AmBz-M(O)VK(HTK01166)-OH, the figures for the not cleaved in series [1] and in series [3] were 94% remaining intact after 1 h and 99.5% remaining intact after 1 h, respectively.
As for `CSCC[C@H](NC(=O)c1ccc(CNC(=O)CN2CCN(CC(=O)O)CCN(CC(=O)O)CCN(CC(=O)O)CC2)cc1)C(=O)N[C@H](C(=O)N[C@@H](CCCCNC(=O)CCc1cn(CC(=O)NC[C@H]2CC[C@H](C(=O)N[C@H](C(=O)NCCCC[C@H](NC(=O)N[C@@H](CCC(=O)O)C(=O)O)C(=O)O)C3Cc4ccccc4C3)CC2)nn1)C(=O)O)C(C)C` [[^68Ga]Ga-DOTA-AmBz-MVK(HTK01166)-OH, metal not drawn], the tissue uptake at 1 h in the series “in vivo” (Adrenal Glands uptake) stood at 5.59 ± 4.02 %ID/g; in “in vivo” (Bone uptake), 0.16 ± 0.04 %ID/g; in “in vivo” (Brain uptake), 0.02 %ID/g; in “in vivo” (Fat uptake), 0.72 ± 0.33 %ID/g; in the series “in vivo” (Heart uptake) it was 0.25 ± 0.12 %ID/g; in “in vivo” (Intestines uptake), 0.4 ± 0.1 %ID/g. Moreover, the tissue uptake at 1 h stood at 104 ± 12.2 %ID/g in “in vivo” (Kidneys uptake); 3.98 ± 0.87 %ID/g in “in vivo” (LNCaP Tumor uptake); 0.58 ± 0.08 %ID/g in the series “in vivo” (Liver uptake); 0.96 ± 0.12 %ID/g in “in vivo” (Lungs uptake); 0.21 ± 0.05 %ID/g in the series “in vivo” (Muscle uptake); 0.6 ± 0.22 %ID/g in the series “in vivo” (Pancreas uptake). Also, the tissue uptake at 1 h worked out at 8.87 ± 2.63 %ID/g in “in vivo” (Spleen uptake), 0.11 ± 0.02 %ID/g in “in vivo” (Stomach uptake), 1.03 ± 0.82 %ID/g in the series “in vivo” (Tail uptake) and 0.36 ± 0.06 %ID/g in the series “in vivo” (Testes uptake). For the same molecule, the tissue to tissue ratio at 1 h is 7.24 ± 1.16 in the series “in vivo” (Tumor/Blood uptake ratio), 0.04 ± 0.01 in the series “in vivo” (Tumor/Kidney uptake ratio) and 19.9 ± 5.41 in “in vivo” (Tumor/Muscle uptake ratio). In addition, in the series with mice, the “unidentified radio-metabolite in urine” value is “no presence”.
[^68Ga]Ga-DOTA-AmBz-MVK(HTK01166)-OH registered a not cleaved in series [5] of around 95% intact after 1 h. The cleaved bond entry in series [1] is recorded as “Met-Val, 1 h”; in series [2] it was “Met-Val, 5 min p.i”; in series [4] it was “Met-Val, 15 min p.i”.
